Laboratory results: patent US20170101470A1 (PROTHENA BIOSCIENCES, published 2017)
Where a chain is given by its changes, count along the chain named. Numbers in names are those of the source.

T1: recombinant hMCAM-His (human, UniProt P43121 24-559)
T1 chain: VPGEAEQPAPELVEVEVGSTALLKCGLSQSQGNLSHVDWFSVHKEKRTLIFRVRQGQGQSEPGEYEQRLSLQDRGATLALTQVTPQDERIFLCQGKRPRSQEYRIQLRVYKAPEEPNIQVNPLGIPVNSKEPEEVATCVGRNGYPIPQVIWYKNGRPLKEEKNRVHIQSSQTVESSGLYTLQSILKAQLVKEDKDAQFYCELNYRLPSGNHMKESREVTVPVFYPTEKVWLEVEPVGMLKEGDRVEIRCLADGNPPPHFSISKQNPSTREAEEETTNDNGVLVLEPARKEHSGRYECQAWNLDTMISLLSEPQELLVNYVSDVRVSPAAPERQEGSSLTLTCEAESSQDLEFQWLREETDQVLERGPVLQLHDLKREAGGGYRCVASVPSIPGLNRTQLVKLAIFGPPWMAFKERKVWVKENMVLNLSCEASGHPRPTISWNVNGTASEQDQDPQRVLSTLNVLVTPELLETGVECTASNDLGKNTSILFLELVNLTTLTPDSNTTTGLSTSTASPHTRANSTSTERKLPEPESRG

B1: human MCAM expressed on CHO cells (full length human MCAM gene) (receptor)
chain: VPGEAEQPAPELVEVEVGSTALLKCGLSQSQGNLSHVDWFSVHKEKRTLIFRVRQGQGQSEPGEYEQRLSLQDRGATLALTQVTPQDERIFLCQGKRPRSQEYRIQLRVYKAPEEPNIQVNPLGIPVNSKEPEEVATCVGRNGYPIPQVIWYKNGRPLKEEKNRVHIQSSQTVESSGLYTLQSILKAQLVKEDKDAQFYCELNYRLPSGNHMKESREVTVPVFYPTEKVWLEVEPVGMLKEGDRVEIRCLADGNPPPHFSISKQNPSTREAEEETTNDNGVLVLEPARKEHSGRYECQAWNLDTMISLLSEPQELLVNYVSDVRVSPAAPERQEGSSLTLTCEAESSQDLEFQWLREETDQVLERGPVLQLHDLKREAGGGYRCVASVPSIPGLNRTQLVKLAIFGPPWMAFKERKVWVKENMVLNLSCEASGHPRPTISWNVNGTASEQDQDPQRVLSTLNVLVTPELLETGVECTASNDLGKNTSILFLELVNLTTLTPDSNTTTGLSTSTASPHTRANSTSTERKLPEPESRGVVIVAVIVCILVLAVLGAVLYFLYKKGKLPCRRSGKQEITLPPSRKTELVVEVKSDKLPEEMGLLQGSSGDKRAPGDQGEKYIDLRH
notes: also called hMCAM expressing CHO cells; CD146
B2: human MCAM D216A mutant displayed on mammalian cells (Example 5) (receptor)
chain: B1 chain with D193A
notes: construct and any tag not described
B3: human MCAM Y318A mutant displayed on mammalian cells (Example 5) (receptor)
chain: B1 chain with Y295A
notes: as for B2
B4: humanized anti-MCAM antibody h2120_VH1 + h2120_VL3 (antibody, V domains shown)
VH: QVTLKESGPVLVKPTETLTLTCTVSGFSLTSNGVSWVRQPPGKALEWIAAISSGGTTYYNSAFKSRLTISRDTSKSQVVLTMTNMDPVDTATYYCARRYGYGWYFDFWGQGTLVTVSS
VL: DIQMTQSPSSLSASVGDRVTINCKASQNIYNSLAWYQQKPGKAPKVLIFNANSLQTGIPSRFSGSGSGTDFTLTISSLQPEDFATYYCQQFYSGYTFGQGTKLEIK
notes: V regions cloned into vectors containing human CK (VL) or human IgG1 (VH); also called h2120VH1VL3; Standard VH + conservative VL
B5: humanized anti-MCAM antibody h2120_VH2 + h2120_VL3 (antibody, V domains shown)
VH: B4 VH with T68S
VL: B4 VL
notes: Human IgG1 / human kappa; also called h2120VH2VL3; Conservative VH + conservative VL
B6: humanized anti-MCAM antibody h2120_VH5 + h2120_VL3 (antibody, V domains shown)
VH: B4 VH with G33A
VL: B4 VL
notes: Human IgG1 / human kappa; also called h2120VH5VL3; VH5VL3

Columns and labels:
[1] = molecular target: T2, recombinant laminin 511 (UniProt O15230 36-3695; P07942 22-1786; P11047 34-1609); assay: flow cytometry with a pan-laminin antibody on CHO cells transfected with human MCAM
T2 construct: also called laminin 10 (α5β1γ1)

[2] = molecular target: laminin α-4 (UniProt Q16363 25-1823); assay: FACS on MCAM mutants displayed on mammalian cells
[3] = molecular target: T1, recombinant hMCAM-His; assay: competitive ELISA on coated hMCAM-His, competitor biotinylated rodent or chimeric 2120; IC50 relative to rodent 2120
Protocol: (§1) The apparent affinities of the humanized antibodies were compared to the parental rodent or chimeric antibody in a competitive ELISA according to the following protocol: ELISA plates were coated with recombinant hMCAM-His, and blocked with casein buffer to prevent non-specific binding. Biotinylated rodent or chimeric antibody was added at a subsaturating concentration, in the presence or absence of 3× increasing concentrations of unlabeled competitor (humanized antibody, rodent, or chimeric). After washing to remove unbound antibody, streptavidin HRP was added to allow detection of the biotinylated antibody. The ELISA was developed with TMB substrate and the OD450 was measured. The IC50 of the unlabeled competitor was determined using the GraphPad Prism5 software.

[4] = molecular target: T1, recombinant hMCAM-His; assay: ForteBio Octet Red, antibody on anti-human Fc sensors, hMCAMHis analyte, 1:1 fit; affinity relative to rodent 2120, Expt. #1
Protocol: (§2) The affinities were measured using the ForteBio Octet Red. Anti-human Fc sensors were used to capture the humanized antibodies, and several concentrations of hMCAMHis analyte were used to determine the affinity using a 1:1 fitting model.

[5] = molecular target: T1, recombinant hMCAM-His; assay: ForteBio Octet Red, antibody on anti-human Fc sensors, hMCAMHis analyte, 1:1 fit; affinity relative to rodent 2120, Expt. #2
Protocol: as §2

[6] = molecular target: T1, recombinant hMCAM-His; assay: competitive ELISA on coated hMCAM-His, competitor biotinylated rodent or chimeric 2120; IC50 relative to rodent 2120, Expt. #1
Protocol: as §1

[7] = molecular target: T1, recombinant hMCAM-His; assay: competitive ELISA on coated hMCAM-His, competitor biotinylated rodent or chimeric 2120; IC50 relative to rodent 2120, Expt. #2
Protocol: as §1

[8] = molecular target: B1; assay: laminin/FACS assay: blocking of recombinant laminin 411 binding to hMCAM expressing CHO cells, relative to rodent 2120, Expt#1
Protocol: (§3) Following incubation for 30-45 minutes, the cells were washed and anti-laminin conjugated to AF650 (NovusBio) was added to detect the bound laminin. The cells were run on a flow cytometer to measure the laminin binding signal.

[9] = molecular target: B1; assay: laminin/FACS assay: blocking of recombinant laminin 411 binding to hMCAM expressing CHO cells, relative to rodent 2120, Expt#2
Protocol: as §3

[10] = molecular target: T1, recombinant hMCAM-His; assay: ForteBio Octet Red, antibody on anti-human Fc sensors, hMCAMHis analyte, 1:1 fit; affinity relative to rodent 2120, first Forte column
Protocol: as §2

[11] = molecular target: T1, recombinant hMCAM-His; assay: ForteBio Octet Red, antibody on anti-human Fc sensors, hMCAMHis analyte, 1:1 fit; affinity relative to rodent 2120, second Forte column
Protocol: as §2

[12] = molecular target: T1, recombinant hMCAM-His; assay: summary of ForteBio and competitive ELISA on hMCAM-His
Protocol: as §1, §2

[13] = molecular target: B1; assay: summary of laminin blocking assay on hMCAM expressing CHO cells
Protocol: as §3

Chain of laminin α-4 (Q16363 25-1823): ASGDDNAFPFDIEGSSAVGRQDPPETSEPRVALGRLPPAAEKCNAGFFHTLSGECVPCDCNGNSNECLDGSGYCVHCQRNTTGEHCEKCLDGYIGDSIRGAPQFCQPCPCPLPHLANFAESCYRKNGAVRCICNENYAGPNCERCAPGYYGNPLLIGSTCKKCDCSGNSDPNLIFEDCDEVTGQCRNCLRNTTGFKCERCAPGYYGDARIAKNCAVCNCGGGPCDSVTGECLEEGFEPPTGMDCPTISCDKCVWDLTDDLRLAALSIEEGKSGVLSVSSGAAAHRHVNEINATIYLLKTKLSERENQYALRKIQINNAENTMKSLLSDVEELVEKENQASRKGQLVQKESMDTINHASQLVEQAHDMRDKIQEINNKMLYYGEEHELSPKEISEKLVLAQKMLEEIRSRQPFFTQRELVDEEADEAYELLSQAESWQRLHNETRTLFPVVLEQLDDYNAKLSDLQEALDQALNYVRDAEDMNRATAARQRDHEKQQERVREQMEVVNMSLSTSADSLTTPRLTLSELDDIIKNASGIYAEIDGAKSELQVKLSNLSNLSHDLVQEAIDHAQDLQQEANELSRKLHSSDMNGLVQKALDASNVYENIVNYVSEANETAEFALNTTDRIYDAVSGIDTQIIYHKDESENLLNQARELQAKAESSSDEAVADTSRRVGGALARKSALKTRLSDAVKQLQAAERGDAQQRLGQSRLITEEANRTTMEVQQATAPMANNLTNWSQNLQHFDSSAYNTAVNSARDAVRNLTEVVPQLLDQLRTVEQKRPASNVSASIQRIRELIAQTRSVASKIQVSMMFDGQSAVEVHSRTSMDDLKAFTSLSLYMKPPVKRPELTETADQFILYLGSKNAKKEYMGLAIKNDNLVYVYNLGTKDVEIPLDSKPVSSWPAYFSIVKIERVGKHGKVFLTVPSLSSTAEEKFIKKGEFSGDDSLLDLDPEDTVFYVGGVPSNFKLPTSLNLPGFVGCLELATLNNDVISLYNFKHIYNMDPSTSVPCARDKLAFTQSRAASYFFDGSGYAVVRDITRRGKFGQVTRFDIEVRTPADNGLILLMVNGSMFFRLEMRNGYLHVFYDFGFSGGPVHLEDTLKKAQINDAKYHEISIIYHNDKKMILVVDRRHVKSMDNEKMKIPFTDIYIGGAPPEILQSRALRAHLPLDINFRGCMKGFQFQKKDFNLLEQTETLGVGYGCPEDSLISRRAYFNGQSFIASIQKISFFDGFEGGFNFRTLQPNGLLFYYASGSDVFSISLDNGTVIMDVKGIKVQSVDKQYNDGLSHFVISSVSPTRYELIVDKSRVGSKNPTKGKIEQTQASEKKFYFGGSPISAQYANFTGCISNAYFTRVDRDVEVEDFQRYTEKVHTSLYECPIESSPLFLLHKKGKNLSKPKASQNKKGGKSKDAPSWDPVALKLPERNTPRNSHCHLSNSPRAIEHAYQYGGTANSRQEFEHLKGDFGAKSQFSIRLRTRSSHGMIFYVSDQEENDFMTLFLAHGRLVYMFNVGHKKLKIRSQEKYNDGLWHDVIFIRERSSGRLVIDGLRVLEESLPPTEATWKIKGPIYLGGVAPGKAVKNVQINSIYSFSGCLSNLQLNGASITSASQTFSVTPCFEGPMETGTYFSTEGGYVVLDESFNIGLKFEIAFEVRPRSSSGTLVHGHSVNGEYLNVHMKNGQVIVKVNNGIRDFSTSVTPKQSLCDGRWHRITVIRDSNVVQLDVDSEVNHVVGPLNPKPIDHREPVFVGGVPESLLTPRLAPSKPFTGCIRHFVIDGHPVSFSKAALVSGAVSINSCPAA

Row | Binder | binding result [2] | Fold over rodent (ELISA) [3] [fold] | Fold over rodent (Forte) [4] [fold] | Fold over rodent (Forte) [5] [fold] | Fold over rodent (ELISA) [6] [fold] | Fold over rodent (ELISA) [7] [fold] | Fold over rodent (Blocking) [8] [fold] | Fold over rodent (Blocking) [9] [fold] | Fold over rodent (Forte) [10] [fold] | Fold over rodent (Forte) [11] [fold] | further results
1 | B1 |  |  |  |  |  |  |  |  |  |  | binding result [1]: no binding (tested: 10 µg/ml)
2 | B2 | no binding |  |  |  |  |  |  |  |  |  | 
3 | B3 | no binding |  |  |  |  |  |  |  |  |  | 
4 | B4 |  | 1.8 | 5.64 | 6.21 | 2.23 | 2.42 | 1.7 | 2.8 | 5.9 | 5.8 | 
5 | B5 |  |  | 6.57 | 6.43 | 1.93 | 2.62 |  |  |  |  | 
6 | B6 |  | 2.4 |  |  |  |  | 1.2 | 1.5 | 1.1 | 1.2 | reduction in affinity (fold, against rodent 2120) [12]: < 2 fold; reduction in potency (fold, against rodent 2120) [13]: < 2 fold
